B1: hEGF: human epidermal growth factor (protein, UniProt P01133 23-1207, looked up)
Pro-epidermal growth factor: PQHWSCPEGTLAGNGNSTCVGPAPFLIFSHGNSIFRIDTEGTNYEQLVVDAGVSVIMDFHYNEKRIYWVDLERQLLQRVFLNGSRQERVCNIEKNVSGMAINWINEEVIWSNQQEGIITVTDMKGNNSHILLSALKYPANVAVDPVERFIFWSSEVAGSLYRADLDGVGVKALLETSEKITAVSLDVLDKRLFWIQYNREGSNSLICSCDYDGGSVHISKHPTQHNLFAMSLFGDRIFYSTWKMKTIWIANKHTGKDMVRINLHSSFVPLGELKVVHPLAQPKAEDDTWEPEQKLCKLRKGNCSSTVCGQDLQSHLCMCAEGYALSRDRKYCEDVNECAFWNHGCTLGCKNTPGSYYCTCPVGFVLLPDGKRCHQLVSCPRNVSECSHDCVLTSEGPLCFCPEGSVLERDGKTCSGCSSPDNGGCSQLCVPLSPVSWECDCFPGYDLQLDEKSCAASGPQPFLLFANSQDIRHMHFDGTDYGTLLSQQMGMVYALDHDPVENKIYFAHTALKWIERANMDGSQRERLIEEGVDVPEGLAVDWIGRRFYWTDRGKSLIGRSDLNGKRSKIITKENISQPRGIAVHPMAKRLFWTDTGINPRIESSSLQGLGRLVIASSDLIWPSGITIDFLTDKLYWCDAKQSVIEMANLDGSKRRRLTQNDVGHPFAVAVFEDYVWFSDWAMPSVMRVNKRTGKDRVRLQGSMLKPSSLVVVHPLAKPGADPCLYQNGGCEHICKKRLGTAWCSCREGFMKASDGKTCLALDGHQLLAGGEVDLKNQVTPLDILSKTRVSEDNITESQHMLVAEIMVSDQDDCAPVGCSMYARCISEGEDATCQCLKGFAGDGKLCSDIDECEMGVPVCPPASSKCINTEGGYVCRCSEGYQGDGIHCLDIDECQLGEHSCGENASCTNTEGGYTCMCAGRLSEPGLICPDSTPPPHLREDDHHYSVRNSDSECPLSHDGYCLHDGVCMYIEALDKYACNCVVGYIGERCQYRDLKWWELRHAGHGQQQKVIVVAVCVVVLVMLLLLSLWGAHYYRTQKLLSKNPKNPYEESSRDVRSRRPADTEDGMSSCPQPWFVVIKEHQDLKNGGQPVAGEDGQAADGSMQPTSWRQEPQLCGMGTEQGCWIPVSSDKGSCPQVMERSFHMPSYGTQTLEGGVEKPHSLLSANPLWQQRALDPPHQMELTQ
modifications: Pro-epidermal growth factor
B2: mNG3A(1-10)-FHA1-EV linker-PKA substrate-HaloTag^(JF669): enhanced FluoSTEP-AKAR: split mNG3A donor, HaloTag^(JF669) acceptor, 116 aa EV linker (protein)
chain: MVSKGEEDNMASLPATHELHIFGSINGVDFDMVGQGTGNPNDGYEELNLKSTKGDLQFSPWILVPHIGYGFHQYLPYPDGMSPFQAAMVDGSGYQVHRTMQFEDGASLTVNYRYTYEGSHIKGEAQVMGTGFPADGPVMTNTLTAADLCVSKMTYPNDKTIISTFKWSYTTVNGKRYRSTARTTYTFAKPMAAKYLKNQPMYVLRKTELKHSMWTFGRNPACDYHLGNISRLSNKHFQILLGEDGNLLLNDISTNGTWLNGQKVSAGGSAGGSAGGSAGGSAGGSGSAGGSAGGSTSAGGSAGGSAGGSAGGSAGGSGSAGGSAGGSTSAGGSAGGSAGGSAGGSAGGSGSAGGSAGGSTSAGGSAGGSAGGSAGGSAGGLRRATLVDGGTGGSELMGSEIGTGFPFDPHYVEVLGERMHYVDVGPRDGTPVLFLHGNPTSSYVWRNIIPHVAPTHRCIAPDLIGMGKSDKPDLGYFFDDHVRFMDAFIEALGLEEVVLVIHDWGSALGFHWAKRNPERVKGIAFMEFIRPIPTWDEWPEFARETFQAFRTTDVGRKLIIDQNVFIEGTLPMGVVRPLTEVEMDHYREPFLNPVDREPLWRFPNELPIAGEPANIVALVEEYMDWLHQSPVPKLLFWGTPGVLIPPAEAARLAKSLPNCKAVDIGPGLNLLQEDNPDLIGSEIARWLSTLEISG

Assays:
Format in all cases: cell-based
[1] = system: ERK; assay: Multiplexed biosensor imaging in HEK293T cells: ERK activity (yellow/far-red HaloTag-EKAR); conditions: HEK293T cells co-expressing yellow/far-red HaloTag-EKAR and red/far-red HaloTag-AKAR; 100 ng/mL hEGF
Experimental: (§1) Cell culture and transfection HeLa and HEK293T cells were cultured in Dulbecco's modified Eagle medium (DMEM; Gibco) containing glucose (1 g/L) and supplemented with 10% (v/v) fetal bovine serum (Sigma-Aldrich) and 1% (v/v) penicillin-streptomycin (Pen-Strep; Sigma-Aldrich). NIH3T3 cells were cultured in DMEM (Gibco) containing glucose (1 g/L) and supplemented with 10% (v/v) fetal calf serum and 1% (v/v) Pen-Strep (Sigma-Aldrich). All cells were maintained in a humidified incubator at 37° C. with a 5% CO2 atmosphere. Before transfection, cells were plated onto sterile quartered 35-mm glass-bottomed dishes and grown to 50 to 70% confluence. Cells were then transfected using Lipofectamine 2000 (Invitrogen, HeLa) or PolyJet (SignaGen Laboratories, HEK293T and NIH3T3) and grown an additional 48 hours (HeLa, HEK293T) before imaging. NIH3T3 cells were changed to serum-free DMEM immediately before transfection, medium was changed to complete medium after 6 h. NIH3T3 cells were then serum-starved for 24 hours before imaging. HaloTag labeling was performed 24 h before imaging using synthetic fluorophores (Fluorophore-CA 500 nM, 24 h, 37° C.) in the respective medium. Synthetic fluorophores were kindly provided by Luke Lavis (Janelia Research Campus, JF669-CA, JFX646-CA and JF635) or Kai Johnsson (Max Planck Institute for Medical Research (Germany) and EPFL (Switzerland), NGD-CA). […]

[2] = biological target: T1, PKA (Homo sapiens, UniProt P17612); assay: Multiplexed biosensor imaging in HEK293T cells: PKA activity (red/far-red HaloTag-AKAR); conditions: HEK293T cells co-expressing yellow/far-red HaloTag-EKAR and red/far-red HaloTag-AKAR; 100 ng/mL hEGF; Fsk and 100 μM IBMX together; M H89
T1 construct: endogenous in cells; host or cells: HEK293T; only the biosensors are transfected
Experimental: as §1

[3] = system: PKA; assay: HaloTag-based FluoSTEP-AKAR co-expressed with FP11-Actin in HeLa cells, Fsk/IBMX stimulation
Excerpt: Recently, anew biosensor design was developed using self-complementing split green FP (GFP) as the FRET donor. The self-complementation allowed the biosensors to be recruited and reconstituted at proteins of interest (POI) endogenously tagged with the FPs eleventh-strand (FP11). This allowed researchers to monitor compartmentalized signaling within endogenous microdomains without overexpressing the POI^[11]. However, this concept, fluorescent biosensors targeted to endogenous proteins (FluoSTEPs), suffers from two major limitations: low dynamic range and low brightness^[11]. Given the promising dynamic range achieved using HaloTag^(JF669) as a FRET acceptor in KARs, we decided to introduce HaloTag into FluoSTEP-AKAR. We replaced mRuby2 in FluoSTEP-AKAR with HaloTag and additionally introduced the EV linker to further increase the dynamic range. In order to address the limitation of low brightness of sfGFP as a FRET donor, we tested the use of two different split mNeonGreen (mNG) versions: split mNeonGreen2 (mNG2)^[22] and split mNeonGreen3A (mNG3A)[^21] in parallel (FIG. 8A). We co-expressed the generated biosensors with FP11-Actin in HeLa cells and used Fsk and IBMX to stimulate the reporters to monitor PKA signal. […] Consistent with previous results biosensors with HaloTag at the C-terminus performed best. […]

[4] = system: PKA; assay: FluoSTEP-AKAR in HeLa cells endogenously expressing mNG11 (knock-in), Fsk/IBMX treatment; conditions: HeLa-mNG11-β-Actin, HeLa-mNG11-clathrin and HeLa-mNG11-ezrin cells; 50 M Fsk and 100 μM IBMX
Experimental: Using our enhanced HaloTag-based FluoSTEPs mNG3A(1-10)-FHA1-xx aa EV linker-PKA substrate-HaloTag^(JF669) (xx=220 and 116 aa) we measured PKA activation upon treatment with 50 M Fsk and 100 μM IBMX in HeLa cells endogenously expressing mNG11 at different locations (CRISPER-mediated knock-in).

Row | Molecule | ERK activity [1] | PKA activity [2] | increase when stimulated (dynamic range) ([3]; HeLa cells co-expressing FP11-Actin, Fsk and IBMX, HaloTag labeled with JF669, mean±SEM) | dynamic range relative to the conventional FluoSTEP ([3]; same experimental conditions, conventional FluoSTEP-AKAR of reference [11]) | response (PKA activation) compared between EV linker lengths [4]
1 | B1 | increase in both ERK and PKA activity | increase in both ERK and PKA activity | – | – | –
2 | B2 | – | – | 71.1%±3.1% | about 8 times | diminished response compared to the sensor with the 220 aa EV linker

— patent US20260235593A1, “FRET BIOSENSOR RECOMBINANT PROTEINS” (The Regents of the University of California, priority 2023, published 2026)
